For orientation: Kd means the equilibrium constant for the complex coming apart. The low end stands for tighter binding, the high end for weaker binding.

The values below come from PMC2908218.

This experiment deals with conventional myosin (Caenorhabditis elegans) (UniProt P02566). Put plainly: ELISA. (ELISA stands for enzyme-linked immunosorbent assay.)
Chain of UniProt P02566 (P02566 whole entry): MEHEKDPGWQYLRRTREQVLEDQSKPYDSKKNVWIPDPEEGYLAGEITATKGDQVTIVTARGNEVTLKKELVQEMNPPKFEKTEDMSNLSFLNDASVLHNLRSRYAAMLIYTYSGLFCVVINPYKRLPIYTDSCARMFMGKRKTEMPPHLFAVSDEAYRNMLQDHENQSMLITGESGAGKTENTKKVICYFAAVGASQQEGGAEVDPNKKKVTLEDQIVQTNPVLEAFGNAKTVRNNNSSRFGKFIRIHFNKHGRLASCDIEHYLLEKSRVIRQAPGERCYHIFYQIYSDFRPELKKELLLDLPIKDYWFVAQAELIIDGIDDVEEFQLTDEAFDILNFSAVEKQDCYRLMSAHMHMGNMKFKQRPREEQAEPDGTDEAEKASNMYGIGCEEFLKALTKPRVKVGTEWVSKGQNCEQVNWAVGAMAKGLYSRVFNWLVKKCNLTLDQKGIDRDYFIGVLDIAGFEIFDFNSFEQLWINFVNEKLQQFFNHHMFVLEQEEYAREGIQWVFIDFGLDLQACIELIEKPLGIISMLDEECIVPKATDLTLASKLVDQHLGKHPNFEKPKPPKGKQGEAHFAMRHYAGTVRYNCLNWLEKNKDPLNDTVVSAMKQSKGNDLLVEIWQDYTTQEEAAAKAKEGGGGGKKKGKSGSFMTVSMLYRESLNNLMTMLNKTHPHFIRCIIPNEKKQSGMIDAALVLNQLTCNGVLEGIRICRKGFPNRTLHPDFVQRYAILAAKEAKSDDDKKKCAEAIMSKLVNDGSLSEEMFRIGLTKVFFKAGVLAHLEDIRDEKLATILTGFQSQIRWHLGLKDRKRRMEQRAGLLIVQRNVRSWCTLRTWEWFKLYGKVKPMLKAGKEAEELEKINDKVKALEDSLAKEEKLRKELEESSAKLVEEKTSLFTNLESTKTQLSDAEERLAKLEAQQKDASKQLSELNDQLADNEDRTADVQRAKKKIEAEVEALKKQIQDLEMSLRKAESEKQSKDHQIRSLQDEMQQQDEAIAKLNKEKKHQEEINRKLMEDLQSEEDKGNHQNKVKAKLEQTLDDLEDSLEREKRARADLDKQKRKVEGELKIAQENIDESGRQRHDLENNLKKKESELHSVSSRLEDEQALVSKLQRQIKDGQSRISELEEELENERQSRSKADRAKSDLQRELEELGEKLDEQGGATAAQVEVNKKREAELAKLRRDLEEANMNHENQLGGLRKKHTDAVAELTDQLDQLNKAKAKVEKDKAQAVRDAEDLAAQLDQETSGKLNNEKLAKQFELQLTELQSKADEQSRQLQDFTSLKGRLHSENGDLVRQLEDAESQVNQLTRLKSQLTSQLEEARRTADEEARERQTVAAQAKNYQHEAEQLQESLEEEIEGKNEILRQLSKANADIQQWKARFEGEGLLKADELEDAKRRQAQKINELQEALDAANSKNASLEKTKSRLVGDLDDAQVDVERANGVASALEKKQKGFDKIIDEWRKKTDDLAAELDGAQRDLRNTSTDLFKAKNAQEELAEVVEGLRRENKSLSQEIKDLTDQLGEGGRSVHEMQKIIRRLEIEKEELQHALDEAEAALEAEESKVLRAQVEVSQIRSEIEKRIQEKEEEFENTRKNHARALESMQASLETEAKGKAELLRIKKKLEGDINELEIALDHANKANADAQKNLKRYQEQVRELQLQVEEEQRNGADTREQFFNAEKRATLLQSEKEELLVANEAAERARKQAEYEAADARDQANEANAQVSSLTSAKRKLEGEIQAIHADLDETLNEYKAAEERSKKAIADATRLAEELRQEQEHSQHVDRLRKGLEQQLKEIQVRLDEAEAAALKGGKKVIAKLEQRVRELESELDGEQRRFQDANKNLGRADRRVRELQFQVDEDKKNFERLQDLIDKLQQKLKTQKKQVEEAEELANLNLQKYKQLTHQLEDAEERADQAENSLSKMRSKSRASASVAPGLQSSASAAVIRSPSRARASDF

In turn, “TTN-1 fragment 11/12 Ig38-Ig39-Ig40 (from UniProt G4SLH0)” came in with a dissociation constant (Kd) of 1.5 nM.
